Columns and labels:
[1] = target: JUN (UniProt P05412); conditions: PS at 6 linkages within the Sp1 recognition octamer; K2PtCl4 crosslinking, SDS gel
[2] = target: T1, CREB (CRE-BP) (UniProt P15337 P15337:1-327); assay: EMSA; 50 mM KCl, 15 mM Tris pH 7.5, room temperature; conditions: chain copies: 2, label: 5'-32P
Method: (§1) Binding of the ligated CRE and CRE(s)_6 sequences to the CREB protein was carried out as previously described [Dwarki et al., EMBO J. 9:225–232 (1990); chu and Orgel, Nucleic Acids Res. 19:6958 (1991)]. Approximately 0.015 pmole of the [^32P]-CRE sequences was added to ~200 ng of pure CREB protein in 10 µl of buffer containing 50 mM KCl, 15 mM Tris, (pH 7.5), 0.1 mM EDTA, 0.5 mM DTT, 180 ng acetylated BSA and 250 ng (poly[dI-dC].poly[dI-dC]) and then incubated at room temperature for 15–20 minutes. Binding was detected by gel shift assay on 6% non-denaturing gels using 40 mM Tris-borate at pH 8.2 as the electrophoresis buffer. Binding of the ligated CRE sequences to an aliquot of nuclear extract from PC12 cells (4 μg total protein) was carried out in the same way. Binding of TRE sequences to the JUN protein was carried out similarly in 10 μl of buffer containing 50 mM Tris (pH 7.9), 100 mM KCl, 1 mM EDTA, 1 mM DTT, 12.5 mM MgCl_2, 20% glycerol and 250 ng (poly[dI-dC]·poly[dI-dC]). Binding was detected by non-denaturing gel electrophoresis on 6% acrylamide, using 20 mM Tris-borate (pH 8.2) as electrophoresis buffer.

[3] = target: T1, CREB (CRE-BP); assay: EMSA; does not bind CREB; crosslinking <10% of CRE at 2 mM K2PtCl4, none at 0.3 mM; conditions: chain copies: 2; label: 32P; closed circular dumbbell
Method: (§2) Binding of the ligated CRE and CRE(s)_6 sequences to the CREB protein was carried out as previously described [Dwarki et al., EMBO J. 9:225–232 (1990); chu and Orgel, Nucleic Acids Res. 19:6958 (1991)]. Approximately 0.015 pmole of the [^32P]-CRE sequences was added to ~200 ng of pure CREB protein in 10 µl of buffer containing 50 mM KCl, 15 mM Tris, (pH 7.5), 0.1 mM EDTA, 0.5 mM DTT, 180 ng acetylated BSA and 250 ng (poly[dI-dC].poly[dI-dC]) and then incubated at room temperature for 15–20 minutes. Binding was detected by gel shift assay on 6% non-denaturing gels using 40 mM Tris-borate at pH 8.2 as the electrophoresis buffer. Binding of the ligated CRE sequences to an aliquot of nuclear extract from PC12 cells (4 μg total protein) was carried out in the same way. Binding of TRE sequences to the JUN protein was carried out similarly in 10 μl of buffer containing 50 mM Tris (pH 7.9), 100 mM KCl, 1 mM EDTA, 1 mM DTT, 12.5 mM MgCl_2, 20% glycerol and 250 ng (poly[dI-dC]·poly[dI-dC]). Binding was detected by non-denaturing gel electrophoresis on 6% acrylamide, using 20 mM Tris-borate (pH 8.2) as electrophoresis buffer. […]

[4] = target: T1, CREB (CRE-BP); assay: EMSA; bound more efficiently than the other oligomers; 50 mM KCl, pH 7.5; conditions: chain copies: 2; label: 32P; closed circular dumbbell
Method: as §1

[5] = target: T1, CREB (CRE-BP); assay: EMSA; PS does not diminish binding; K2PtCl4 crosslinking 40-50% of binding at 2.3 mM; conditions: chain copies: 2; label: 32P; closed circular dumbbell
Method: as §2

[6] = target: T1, CREB (CRE-BP); assay: EMSA; crosslinks with K2PtCl4 at ~40% of ligCRE(s)6 efficiency; conditions: chain copies: 2; label: 32P; closed circular dumbbell
Method: For crosslinking of oligonucleotide to protein, approximately 0.015 pmole of the appropriate [^32P]-labelled dumbbell oligonucleotide was first incubated with 200 ng CREB or JUN protein in 10 μl of buffer containing 50 mM KCl, 15 mM Tris (pH 7.5), 0.1 mM EDTA, […], 180 ng acetylated BSA and 250 ng (poly[dI-dC]·poly[dI-dC]) as described above. After 15 minutes at room temperature, 1–3 μl of a freshly prepared solution containing the required amount of K_2PtCl_4 or transPt^II in buffer containing 1 mM phosphate (pH 7) and 0.1 mM EDTA was added to the reaction mixture. Incubation was continued at room temperature in the dark for 1 hour. 0.5 μl of a 5% solution of SDS was then added and the crosslinked product separated from non-crosslinked oligonucleotide on an 8% polyacrylamide gel using buffer containing 90 mM Tris-borate (pH 8.2) and 0.1% SDS (SDS gels disrupt noncovalently associated DNA-protein complexes).

T1 sequence (P15337 whole entry, one chain of several): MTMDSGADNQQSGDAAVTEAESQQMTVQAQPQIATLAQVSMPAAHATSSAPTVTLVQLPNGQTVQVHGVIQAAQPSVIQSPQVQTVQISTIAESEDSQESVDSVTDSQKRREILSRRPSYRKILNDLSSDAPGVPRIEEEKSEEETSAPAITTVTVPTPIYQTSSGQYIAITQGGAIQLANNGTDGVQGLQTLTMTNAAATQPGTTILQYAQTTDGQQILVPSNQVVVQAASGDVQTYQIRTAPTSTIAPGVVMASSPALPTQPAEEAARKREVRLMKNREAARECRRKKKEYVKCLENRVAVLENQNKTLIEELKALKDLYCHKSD
Sequence of JUN (P05412 whole entry): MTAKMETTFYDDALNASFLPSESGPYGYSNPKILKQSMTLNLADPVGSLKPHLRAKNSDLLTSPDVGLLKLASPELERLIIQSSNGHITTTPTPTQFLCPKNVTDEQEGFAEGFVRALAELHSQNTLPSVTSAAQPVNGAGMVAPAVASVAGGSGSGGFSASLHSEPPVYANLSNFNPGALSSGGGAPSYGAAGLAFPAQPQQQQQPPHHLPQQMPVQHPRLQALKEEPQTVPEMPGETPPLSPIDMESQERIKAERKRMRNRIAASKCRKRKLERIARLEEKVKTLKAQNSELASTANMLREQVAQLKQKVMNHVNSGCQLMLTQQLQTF

CCTCTCGCTCGCCCCGCCCCGATCCTCTCGATCGGGGCGGGGCGAG [ligSp1(s)6 dumbbell]
binding signal (% of ligTRE(s)6 crosslinking) [1]: < 10

AAATTGACGTCATGGTAACTCTCTTACCATGACGTCAATTT (structured_DNA) [CRE 41-mer hairpin]
binding result ([2]; hairpin with CTCTC loop): binds

CCTCTCGCTCGCCCCGCCCCGATCCTCTCGATCGGGGCGGGGCGAG (structured_DNA, PS at 6 linkages within the Sp1 recognition octamer) [ligSp1(s)6 dumbbell]
binding result [3]: no binding

GTAACTCTCTTACCATGACGTCAATTTCTCTCAAATTGACGTCATG (structured_DNA) [CRE 46-mer nicked dumbbell]
binding result ([2]; nicked dumbbell): binds

GTAACTCTCTTACCATGACGTCAATTTCTCTCAAATTGACGTCATG (structured_DNA) [ligCRE dumbbell]
binding result [4]: binds

GTAACTCTCTTACCATGACGTCAATTTCTCTCAAATTGACGTCATG (structured_DNA, PS at 6 linkages within the octamer (T(s)GAC(s)GTC(s)A on both strands)) [ligCRE(s)6 dumbbell]
binding result [5]: binds

ACTCTCTGTGTCTGACTCATGCTCTCTCAGCATGAGTCAGACAC (structured_DNA, PS at 6 linkages within the recognition sequence) [ligTRE(s)6 dumbbell]
binding signal [6]: ~0.1 fold of ligCRE(s)6

B1: CRE 18-mer duplex (dsDNA)
DNA 1: AAATTGACGTCATGGTAA
DNA 2: TTACCATGACGTCAATTT
binding result [2]: binds

Reference: US5683985, “Oligonucleotide decoys and methods relating thereto” (The Salk Institute for Biological Studies)
